Measurements taken from the supplement of paper PMC9233669.
This sample holds only a part of the variants without activity.

Columns and labels:
biotinyl-Phe-oxazolone = test: self-aminoacylation, catalytic enhancement (BFO) (fold over background); higher = more active; k-Seq, kA / k0A0; sequences stand for … in GGGAAUGGAUCCACAUCUACGAAUUC…UUCACUGCAGACUUGACGAAGCUG
Outline: (§1)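 Mutagenized RNA pools with a 21-nt variable region (0.43 μM) reacted with each biotinyl-aminoacyl-oxazolone at 2–1250 μM. Reactions ran in 50 μL HEPES/NaCl/KCl/MgCl2/CaCl2 buffer with 5% acetonitrile, pH 6.9–7.0, for 90 minutes at room temperature. Streptavidin-captured RNA was quantified by triplicate qPCR and Illumina sequencing, and per-sequence fraction reacted was fit to a pseudo-first-order model with 1000 bootstraps. Catalytic enhancement is median kA divided by the uncatalyzed rate, the low-activity peak of a bimodal Gaussian fit.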

biotinyl-Ile-oxazolone = test: self-aminoacylation, catalytic enhancement (BIO) (fold over background); higher = more active; k-Seq, kA / k0A0; sequences stand for … in GGGAAUGGAUCCACAUCUACGAAUUC…UUCACUGCAGACUUGACGAAGCUG
Outline: as §1

biotinyl-Met-oxazolone = test: self-aminoacylation, catalytic enhancement (BMO) (fold over background); higher = more active; k-Seq, kA / k0A0; sequences stand for … in GGGAAUGGAUCCACAUCUACGAAUUC…UUCACUGCAGACUUGACGAAGCUG
Outline: as §1

biotinyl-Val-oxazolone = test: self-aminoacylation, catalytic enhancement (BVO) (fold over background); higher = more active; k-Seq, kA / k0A0; sequences stand for … in GGGAAUGGAUCCACAUCUACGAAUUC…UUCACUGCAGACUUGACGAAGCUG
Outline: as §1

biotinyl-Leu-oxazolone = test: self-aminoacylation, catalytic enhancement (BLO) (fold over background); higher = more active; k-Seq, kA / k0A0; sequences stand for … in GGGAAUGGAUCCACAUCUACGAAUUC…UUCACUGCAGACUUGACGAAGCUG
Outline: as §1

biotinyl-Trp-oxazolone = test: self-aminoacylation, catalytic enhancement (BWO) (fold over background); higher = more active; k-Seq, kA / k0A0; sequences stand for … in GGGAAUGGAUCCACAUCUACGAAUUC…UUCACUGCAGACUUGACGAAGCUG
Outline: as §1

Row | Sequence | self-aminoacylation (biotinyl-Phe-oxazolone) | self-aminoacylation (biotinyl-Ile-oxazolone) | self-aminoacylation (biotinyl-Met-oxazolone) | self-aminoacylation (biotinyl-Val-oxazolone) | self-aminoacylation (biotinyl-Leu-oxazolone) | self-aminoacylation (biotinyl-Trp-oxazolone)
1 | AAGUUUGCGAAUUGUCGCAAG [Fam3.1 aminoacylation ribozyme variant] | 6.83 | 1.77 | 2.15 | 2.23 | 1.94 | 2.19
2 | AAGUUUGCGAGUAGUCGCAAG [Fam3.1 aminoacylation ribozyme variant] | 1.71 | 1.12 | 0.918 | 0.882 | 1.22 | 1.32
3 | AAGUUUGCUAAAACUCGCAAG [Fam3.1 aminoacylation ribozyme variant] | 0.521 | 0.916 | 0.668 | 0.821 | 0.998 | 0.796
4 | AAGUUUGCUAAAAGUAGCAAG [Fam3.1 aminoacylation ribozyme variant] | 1.04 | 1.02 | 1.16 | 0.783 | 0.818 | 1.03
5 | AAGUUUGCUAAAAGUCGCAAG [Fam3.1 aminoacylation ribozyme variant] | 17.1 | 1.24 | 1.33 | 1.08 | 1.01 | 4.97
6 | AAGUUUGCUAACAGACGCAAG [Fam3.1 aminoacylation ribozyme variant] | 1.06 | 0.512 | 0.478 | 0.733 | 0.38 | 0.444
7 | AAGUUUGCUAACAGUCGCAUG [Fam3.1 aminoacylation ribozyme variant] | 0.642 | 0.963 | 0.804 | 0.899 | 0.89 | 1.11
8 | AAGUUUGCUAACAGUCGCUAG [Fam3.1 aminoacylation ribozyme variant] | 1.36 | 0.756 | 0.738 | 0.899 | 0.823 | 0.96
9 | AAGUUUGCUAAGAGGCGCAAG [Fam3.1 aminoacylation ribozyme variant] | 1.21 | 0.727 | 0.759 | 0.656 | 0.547 | 0.895
10 | AAGUUUGCUAAGAGUCCCAAG [Fam3.1 aminoacylation ribozyme variant] | 1.48 | 0.788 | 0.787 | 0.672 | 0.765 | 1
11 | AAGUUUGCUAAGAGUCGCAAC [Fam3.1 aminoacylation ribozyme variant] | 0.845 | 1.21 | 1.07 | 1.19 | 1.27 | 1.28
12 | AAGUUUGCUAAGAGUCGCACG [Fam3.1 aminoacylation ribozyme variant] | 5.94 | 1.17 | 0.636 | 1.12 | 0.977 | 2.06
13 | AAGUUUGCUAAGAGUCUCAAG [Fam3.1 aminoacylation ribozyme variant] | 1.02 | 0.81 | 0.651 | 0.823 | 0.775 | 1.01
14 | AAGUUUGCUAAUAAUCCCAAG [Fam3.1 aminoacylation ribozyme variant] | 1.03 | 0.76 | 0.949 | 0.961 | 0.736 | 1.38
15 | AAGUUUGCUAAUACUAGCAAG [Fam3.1 aminoacylation ribozyme variant] | 0.734 | 0.59 | 0.798 | 0.567 | 0.722 | 0.476
16 | AAGUUUGCUAAUACUCGCAAG [Fam3.1 aminoacylation ribozyme variant] | 0.812 | 0.659 | 0.569 | 0.652 | 0.553 | 0.607
17 | AAGUUUGCUAAUACUCGUAAG [Fam3.1 aminoacylation ribozyme variant] | 0.706 | 0.57 | 0.547 | 0.636 | 0.559 | 0.557
18 | AAGUUUGCUAAUAGACUCAAG [Fam3.1 aminoacylation ribozyme variant] | 0.758 | 0.416 | 0.332 | 0.427 | 0.313 | 0.449
19 | AAGUUUGCUAAUAGAUGCAAG [Fam3.1 aminoacylation ribozyme variant] | 0.814 | 0.954 | 0.789 | 0.911 | 0.82 | 0.784
20 | AAGUUUGCUAAUAGCCGAAAG [Fam3.1 aminoacylation ribozyme variant] | 1.6 | 1.09 | 0.766 | 0.677 | 1.03 | 1.28
21 | AAGUUUGCUAAUAGCCGCAGG [Fam3.1 aminoacylation ribozyme variant] | 0.671 | 0.792 | 0.745 | 0.853 | 0.765 | 0.916
22 | AAGUUUGCUAAUAGCCGGAAG [Fam3.1 aminoacylation ribozyme variant] | 3.2 | 1.25 | 1.14 | 1.25 | 1.4 | 2.38

Row | Sequence | self-aminoacylation (biotinyl-Phe-oxazolone) | self-aminoacylation (biotinyl-Ile-oxazolone) | self-aminoacylation (biotinyl-Met-oxazolone) | self-aminoacylation (biotinyl-Val-oxazolone) | self-aminoacylation (biotinyl-Leu-oxazolone) | self-aminoacylation (biotinyl-Trp-oxazolone)
23 | AAGUUUGCUAAUAGGCGCAAA [Fam3.1 aminoacylation ribozyme variant] | 1.74 | 1.46 | 1.63 | 1.1 | 1.74 | 1.48
24 | AAGUUUGCUAAUAGUAGCAGG [Fam3.1 aminoacylation ribozyme variant] | 1.71 | 1.08 | 1.16 | 0.985 | 1.08 | 0.837
25 | AAGUUUGCUAAUAGUAGCAUG [Fam3.1 aminoacylation ribozyme variant] | 1.67 | 1.04 | 0.815 | 0.851 | 0.991 | 1.03
26 | AAGUUUGCUAAUAGUCACCAG [Fam3.1 aminoacylation ribozyme variant] | 2.77 | 0.949 | 0.962 | 0.997 | 0.762 | 1.21
27 | AAGUUUGCUAAUAGUCCUAAG [Fam3.1 aminoacylation ribozyme variant] | 14.5 | 1.21 | 1.31 | 1.13 | 1.05 | 4.71
28 | AAGUUUGCUAAUAGUCGAAAU [Fam3.1 aminoacylation ribozyme variant] | 1.52 | 1.31 | 1.39 | 1.37 | 1.01 | 2
29 | AAGUUUGCUAAUAGUCGCAGA [Fam3.1 aminoacylation ribozyme variant] | 1.77 | 1.54 | 1.03 | 0.914 | 1.12 | 0.729
30 | AAGUUUGCUAAUAGUCGCAGG [Fam3.1 aminoacylation ribozyme variant] | 2.2 | 1.29 | 1.31 | 1.31 | 1.38 | 1.45
31 | AAGUUUGCUAAUAGUCGCCAU [Fam3.1 aminoacylation ribozyme variant] | 0.768 | 1.27 | 1.44 | 1.2 | 1.24 | 1.08
32 | AAGUUUGCUAAUAGUCGCGAU [Fam3.1 aminoacylation ribozyme variant] | 1.53 | 1.46 | 1.33 | 1.37 | 1.47 | 1.86
33 | AAGUUUGCUAAUAGUCGCUGG [Fam3.1 aminoacylation ribozyme variant] | 1.72 | 1.21 | 1.67 | 1.25 | 0.78 | 1.18
34 | AAGUUUGCUAAUAGUCGGAAC [Fam3.1 aminoacylation ribozyme variant] | 0.662 | 1.05 | 1.01 | 0.851 | 0.951 | 1.05
35 | AAGUUUGCUAAUAGUCGGCAG [Fam3.1 aminoacylation ribozyme variant] | 1.3 | 0.923 | 0.98 | 0.785 | 0.983 | 1.28
36 | AAGUUUGCUAAUAGUCGUACG [Fam3.1 aminoacylation ribozyme variant] | 1.11 | 0.65 | 0.547 | 0.565 | 0.524 | 0.579
37 | AAGUUUGCUAAUAGUGGAAAG [Fam3.1 aminoacylation ribozyme variant] | 0.794 | 1.21 | 1.2 | 0.944 | 0.876 | 0.946
38 | AAGUUUGCUAAUAUGCGCAAG [Fam3.1 aminoacylation ribozyme variant] | 1.34 | 0.847 | 0.89 | 0.61 | 0.843 | 1.2
39 | AAGUUUGCUAAUAUUCGUAAG [Fam3.1 aminoacylation ribozyme variant] | 0.919 | 0.83 | 0.616 | 0.779 | 0.636 | 0.911
40 | AAGUUUGCUAAUGAUCGCAAG [Fam3.1 aminoacylation ribozyme variant] | 0.952 | 0.697 | 0.488 | 0.603 | 0.52 | 0.749
41 | AAGUUUGCUAAUGGACGCAAG [Fam3.1 aminoacylation ribozyme variant] | 1.18 | 0.591 | 0.604 | 0.576 | 0.83 | 0.56
42 | AAGUUUGCUAAUGGUCGCUAG [Fam3.1 aminoacylation ribozyme variant] | 0.714 | 0.829 | 0.963 | 0.975 | 0.908 | 0.845
43 | AAGUUUGCUAAUUGCCGCAAG [Fam3.1 aminoacylation ribozyme variant] | 1.02 | 1.87 | 1.47 | 1.44 | 1.35 | 2.73
